In PMC7367873, “Dissecting the sequence determinants for dephosphorylation by the catalytic subunits of phosphatases PP1 and PP2A” (Nature Communications, 2020):

B1: MYO1C (protein, UniProt O00159 1-1063, looked up)
Unconventional myosin-Ic: MALQVELVPTGEIIRVVHPHRPCKLALGSDGVRVTMESALTARDRVGVQDFVLLENFTSEAAFIENLRRRFRENLIYTYIGPVLVSVNPYRDLQIYSRQHMERYRGVSFYEVPPHLFAVADTVYRALRTERRDQAVMISGESGAGKTEATKRLLQFYAETCPAPERGGAVRDRLLQSNPVLEAFGNAKTLRNDNSSRFGKYMDVQFDFKGAPVGGHILSYLLEKSRVVHQNHGERNFHIFYQLLEGGEEETLRRLGLERNPQSYLYLVKGQCAKVSSINDKSDWKVVRKALTVIDFTEDEVEDLLSIVASVLHLGNIHFAANEESNAQVTTENQLKYLTRLLSVEGSTLREALTHRKIIAKGEELLSPLNLEQAAYARDALAKAVYSRTFTWLVGKINRSLASKDVESPSWRSTTVLGLLDIYGFEVFQHNSFEQFCINYCNEKLQQLFIELTLKSEQEEYEAEGIAWEPVQYFNNKIICDLVEEKFKGIISILDEECLRPGEATDLTFLEKLEDTVKHHPHFLTHKLADQRTRKSLGRGEFRLLHYAGEVTYSVTGFLDKNNDLLFRNLKETMCSSKNPIMSQCFDRSELSDKKRPETVATQFKMSLLQLVEILQSKEPAYVRCIKPNDAKQPGRFDEVLIRHQVKYLGLLENLRVRRAGFAYRRKYEAFLQRYKSLCPETWPTWAGRPQDGVAVLVRHLGYKPEEYKMGRTKIFIRFPKTLFATEDALEVRRQSLATKIQAAWRGFHWRQKFLRVKRSAICIQSWWRGTLGRRKAAKRKWAAQTIRRLIRGFVLRHAPRCPENAFFLDHVRTSFLLNLRRQLPQNVLDTSWPTPPPALREASELLRELCIKNMVWKYCRSISPEWKQQLQQKAVASEIFKGKKDNYPQSVPRLFISTRLGTDEISPRVLQALGSEPIQYAVPVVKYDRKGYKPRSRQLLLTPNAVVIVEDAKVKQRIDYANLTGISVSSLSDSLFVLHVQRADNKQKGDVVLQSDHVIETLTKTALSANRVNSININQGSITFAGGPGRDGTIDFTPGSELLITKAKNGHLAVVAPRLNSR
B2: CPS1 (protein, UniProt P31327 39-1500, looked up)
Carbamoyl-phosphate synthase …: LSVKAQTAHIVLEDGTKMKGYSFGHPSSVAGEVVFNTGLGGYPEAITDPAYKGQILTMANPIIGNGGAPDTTALDELGLSKYLESNGIKVSGLLVLDYSKDYNHWLATKSLGQWLQEEKVPAIYGVDTRMLTKIIRDKGTMLGKIEFEGQPVDFVDPNKQNLIAEVSTKDVKVYGKGNPTKVVAVDCGIKNNVIRLLVKRGAEVHLVPWNHDFTKMEYDGILIAGGPGNPALAEPLIQNVRKILESDRKEPLFGISTGNLITGLAAGAKTYKMSMANRGQNQPVLNITNKQAFITAQNHGYALDNTLPAGWKPLFVNVNDQTNEGIMHESKPFFAVQFHPEVTPGPIDTEYLFDSFFSLIKKGKATTITSVLPKPALVASRVEVSKVLILGSGGLSIGQAGEFDYSGSQAVKAMKEENVKTVLMNPNIASVQTNEVGLKQADTVYFLPITPQFVTEVIKAEQPDGLILGMGGQTALNCGVELFKRGVLKEYGVKVLGTSVESIMATEDRQLFSDKLNEINEKIAPSFAVESIEDALKAADTIGYPVMIRSAYALGGLGSGICPNRETLMDLSTKAFAMTNQILVEKSVTGWKEIEYEVVRDADDNCVTVCNMENVDAMGVHTGDSVVVAPAQTLSNAEFQMLRRTSINVVRHLGIVGECNIQFALHPTSMEYCIIEVNARLSRSSALASKATGYPLAFIAAKIALGIPLPEIKNVVSGKTSACFEPSLDYMVTKIPRWDLDRFHGTSSRIGSSMKSVGEVMAIGRTFEESFQKALRMCHPSIEGFTPRLPMNKEWPSNLDLRKELSEPSSTRIYAIAKAIDDNMSLDEIEKLTYIDKWFLYKMRDILNMEKTLKGLNSESMTEETLKRAKEIGFSDKQISKCLGLTEAQTRELRLKKNIHPWVKQIDTLAAEYPSVTNYLYVTYNGQEHDVNFDDHGMMVLGCGPYHIGSSVEFDWCAVSSIRTLRQLGKKTVVVNCNPETVSTDFDECDKLYFEELSLERILDIYHQEACGGCIISVGGQIPNNLAVPLYKNGVKIMGTSPLQIDRAEDRSIFSAVLDELKVAQAPWKAVNTLNEALEFAKSVDYPCLLRPSYVLSGSAMNVVFSEDEMKKFLEEATRVSQEHPVVLTKFVEGAREVEMDAVGKDGRVISHAISEHVEDAGVHSGDATLMLPTQTISQGAIEKVKDATRKIAKAFAISGPFNVQFLVKGNDVLVIECNLRASRSFPFVSKTLGVDFIDVATKVMIGENVDEKHLPTLDHPIIPADYVAIKAPMFSWPRLRDADPILRCEMASTGEVACFGEGIHTAFLKAMLSTGFKIPQKGILIGIQQSFRPRFLGVAEQLHNEGFKLFATEATSDWLNANNVPATPVAWPSQEGQNPSLSSIRKLIRDGSIDLVINLPNNNTKFVHDNYVIRRTAVDSGIPLLTNFQVTKLFAEAVQKSRKVDSKSLFHYRQYSAGKAA
B3: IMMT (protein, UniProt Q16891 34-758, looked up)
MICOS complex subunit MIC60: STSGSSGLTTGKIAGAGLLFVGGGIGGTILYAKWDSHFRESVEKTIPYSDKLFEMVLGPAAYNVPLPKKSIQSGPLKISSVSEVMKESKQPASQLQKQKGDTPASATAPTEAAQIISAAGDTLSVPAPAVQPEESLKTDHPEIGEGKPTPALSEEASSSSIRERPPEEVAARLAQQEKQEQVKIESLAKSLEDALRQTASVTLQAIAAQNAAVQAVNAHSNILKAAMDNSEIAGEKKSAQWRTVEGALKERRKAVDEAADALLKAKEELEKMKSVIENAKKKEVAGAKPHITAAEGKLHNMIVDLDNVVKKVQAAQSEAKVVSQYHELVVQARDDFKRELDSITPEVLPGWKGMSVSDLADKLSTDDLNSLIAHAHRRIDQLNRELAEQKATEKQHITLALEKQKLEEKRAFDSAVAKALEHHRSEIQAEQDRKIEEVRDAMENEMRTQLRRQAAAHTDHLRDVLRVQEQELKSEFEQNLSEKLSEQELQFRRLSQEQVDNFTLDINTAYARLRGIEQAVQSHAVAEEEARKAHQLWLSVEALKYSMKTSSAETPTIPLGSAVEAIKANCSDNEFTQALTAAIPPESLTRGVYSEETLRARFYAVQKLARRVAMIDETRNSLYQYFLSYLQSLLLFPPQQLKPPPELCPEDINTFKLLSYASYCIEHGDLELAAKFVNQLKGESRRVAQDWLKEARMTLETKQIVEILTAYASAVGIGTTQVQPE
B4: SSBP1 (protein, UniProt Q04837 17-148, looked up)
Single-stranded DNA-binding …: ESETTTSLVLERSLNRVHLLGRVGQDPVLRQVEGKNPVTIFSLATNEMWRSGDSEVYQLGDVSQKTTWHRISVFRPGLRDVAYQYVKKGSRIYLEGKIDYGEYMDKNNVRRQATTIIADNIIFLSDQTKEKE
B5: MAP4K4 (protein, UniProt O95819 2-1239, looked up)
Mitogen-activated protein …: ANDSPAKSLVDIDLSSLRDPAGIFELVEVVGNGTYGQVYKGRHVKTGQLAAIKVMDVTEDEEEEIKLEINMLKKYSHHRNIATYYGAFIKKSPPGHDDQLWLVMEFCGAGSITDLVKNTKGNTLKEDWIAYISREILRGLAHLHIHHVIHRDIKGQNVLLTENAEVKLVDFGVSAQLDRTVGRRNTFIGTPYWMAPEVIACDENPDATYDYRSDLWSCGITAIEMAEGAPPLCDMHPMRALFLIPRNPPPRLKSKKWSKKFFSFIEGCLVKNYMQRPSTEQLLKHPFIRDQPNERQVRIQLKDHIDRTRKKRGEKDETEYEYSGSEEEEEEVPEQEGEPSSIVNVPGESTLRRDFLRLQQENKERSEALRRQQLLQEQQLREQEEYKRQLLAERQKRIEQQKEQRRRLEEQQRREREARRQQEREQRRREQEEKRRLEELERRRKEEEERRRAEEEKRRVEREQEYIRRQLEEEQRHLEVLQQQLLQEQAMLLECRWREMEEHRQAERLQRQLQQEQAYLLSLQHDHRRPHPQHSQQPPPPQQERSKPSFHAPEPKAHYEPADRAREVEDRFRKTNHSSPEAQSKQTGRVLEPPVPSRSESFSNGNSESVHPALQRPAEPQVPVRTTSRSPVLSRRDSPLQGSGQQNSQAGQRNSTSIEPRLLWERVEKLVPRPGSGSSSGSSNSGSQPGSHPGSQSGSGERFRVRSSSKSEGSPSQRLENAVKKPEDKKEVFRPLKPADLTALAKELRAVEDVRPPHKVTDYSSSSEESGTTDEEDDDVEQEGADESTSGPEDTRAASSLNLSNGETESVKTMIVHDDVESEPAMTPSKEGTLIVRQTQSASSTLQKHKSSSSFTPFIDPRLLQISPSSGTTVTSVVGFSCDGMRPEAIRQDPTRKGSVVNVNPTNTRPQSDTPEIRKYKKRFNSEILCAALWGVNLLVGTESGLMLLDRSGQGKVYPLINRRRFQQMDVLEGLNVLVTISGKKDKLRVYYLSWLRNKILHNDPEVEKKQGWTTVGDLEGCVHYKVVKYERIKFLVIALKSSVEVYAWAPKPYHKFMAFKSFGELVHKPLLVDLTVEEGQRLKVIYGSCAGFHAVDVDSGSVYDIYLPTHIQCSIKPHAIIILPNTDGMELLVCYEDEGVYVNTYGRITKDVVLQWGEMPTSVAYIRSNQTMGWGEKAIEIRSVETGHLDGVFMHKRAQRLKFLCERNDKVFFASVRSGGSSQVYFMTLGRTSLLSW
B6: TUBA1C (protein, UniProt Q9BQE3 1-449, looked up)
Tubulin alpha-1C chain: MRECISIHVGQAGVQIGNACWELYCLEHGIQPDGQMPSDKTIGGGDDSFNTFFSETGAGKHVPRAVFVDLEPTVIDEVRTGTYRQLFHPEQLITGKEDAANNYARGHYTIGKEIIDLVLDRIRKLADQCTGLQGFLVFHSFGGGTGSGFTSLLMERLSVDYGKKSKLEFSIYPAPQVSTAVVEPYNSILTTHTTLEHSDCAFMVDNEAIYDICRRNLDIERPTYTNLNRLISQIVSSITASLRFDGALNVDLTEFQTNLVPYPRIHFPLATYAPVISAEKAYHEQLTVAEITNACFEPANQMVKCDPRHGKYMACCLLYRGDVVPKDVNAAIATIKTKRTIQFVDWCPTGFKVGINYQPPTVVPGGDLAKVQRAVCMLSNTTAVAEAWARLDHKFDLMYAKRAFVHWYVGEGMEEGEFSEAREDMAALEKDYEEVGADSADGEDEGEEY
B7: TUBB4A (protein, UniProt P04350 1-444, looked up)
Tubulin beta-4A chain: MREIVHLQAGQCGNQIGAKFWEVISDEHGIDPTGTYHGDSDLQLERINVYYNEATGGNYVPRAVLVDLEPGTMDSVRSGPFGQIFRPDNFVFGQSGAGNNWAKGHYTEGAELVDAVLDVVRKEAESCDCLQGFQLTHSLGGGTGSGMGTLLISKIREEFPDRIMNTFSVVPSPKVSDTVVEPYNATLSVHQLVENTDETYCIDNEALYDICFRTLKLTTPTYGDLNHLVSATMSGVTTCLRFPGQLNADLRKLAVNMVPFPRLHFFMPGFAPLTSRGSQQYRALTVPELTQQMFDAKNMMAACDPRHGRYLTVAAVFRGRMSMKEVDEQMLSVQSKNSSYFVEWIPNNVKTAVCDIPPRGLKMAATFIGNSTAIQELFKRISEQFTAMFRRKAFLHWYTGEGMDEMEFTEAESNMNDLVSEYQQYQDATAEEGEFEEEAEEEVA
B8: ATP5J2 (protein, UniProt P56134 2-94, looked up)
ATP synthase F(0) complex …: ASVGECPAPVPVKDKKLLEVKLGELPSWILMRDFSPSGIFGAFQRGYYRYYNKYINVKKGSISGITMVLACYVLFSYSFSYKHLKHERLRKYH

What follows are molecules tested on GFP-14-3-3β and its binding proteins (assay: GFP-14-3-3β co-IP with LC-MS/MS label-free quantification, untreated versus PP1c-treated). Conditions: GFP-14-3-3β co-IP, PP1vsUntrted, Perseus raw output, LFQ intensity difference.
Design: species or system human

Difference	Molecule
0.4615	B1

Same assay, conditions: PP1 vs untreated; LFQ intensities; 3 replicates each

Difference (log2), PP1 vs untreated	Molecule
0.4276 log2	B2
0.4434 log2	B3
0.4442 log2	B4
0.4439 log2	B5
0.444 log2	B6
0.4246 log2	B7
0.4378 log2	B8
0.4615 log2	B1

The molecules below were run on GFP-14-3-3β (assay: GFP-14-3-3β co-IP with LC-MS/MS, untreated GFP-14-3-3β versus GFP control (14-3-3 interactome)). Conditions: UntrtedvsGFP, Perseus raw output, LFQ intensity difference.
Assay type: binding, human

Molecule	Difference
B1	-0.5566

Same assay, conditions: untreated vs GFP; LFQ intensities; 3 replicates each

Molecule	Difference (log2), untreated vs GFP
B2	0.419 log2
B3	0.387 log2
B4	-1.1951 log2
B5	0.6698 log2
B6	0.0777 log2
B7	-1.261 log2
B8	-0.05352 log2
B1	-0.5566 log2
